Measured values: the DeepSol protein solubility set

Assay: soluble on expression in E. coli; label from the status in PepcDB or PDB records

Sequence | soluble on expression in E. coli
MGSDKIHHHHHHMANSNMQATDAVAQDTASASGEFDALLNQAFRPKTTQAAKAVEAAVQTLAQQALANTITVSDDAYKSISAIIAQIDFKLTEQIKLILQHPDWQKLESSWRGMEHLVYNTETDEKLKIRFMNLSKDELRRNMKRYKGIAWDQSPMFKKLYEAEYGQLGGEPYGCIIADYYFDHTPPDVDLLGSIAKVAASAHAPFIAGASPSVLQMDSWQELANPRDLTKIVTQNLEYAPWNSLRASEDSRYIGLTMPRFLARLPYGAKTNPVDEFDFEEDADGSDHTKYVWSNAAYAMGVNINRSFKHYGWCTLIRGVESGGAVENLPCHTFPTDDGGVDMKCPTEIAISDRREAELAKNGFIPLIHRKNSDYAAFIGAQSLQKPQEYYDPDATANANLSARLPYLFACSRFAHFLKCIVRDKIGSFKEREDMQRWLNEWIMNYVDADPVNSSQETKARRPLAAAEVVVEEVEGNPGYYDAKFFLRPHFQLEGLTGSLRLVTKLPSVKQGNA | not soluble
MGSDKIHHHHHHMAPNYMTEKWREDEEYLSYVEDLLATEEVQKLAEYTQHMHSTRLEHSISVSYHSYKLAKRWNGNARATARAGLLHDLFYYDWRTTKFDEGSHAYVHPRIAAKNAEKITELSDLERDIIIKHMWGATIAPPKYKESYIVTFVDKYCAVKEAALPMTTAMKTKWRQYFGQQSI | not soluble
MGSDKIHHHHHHMAPYPYKVQTTVPELQYENFDGAKFGYMFWPVQNGTNEVRGRVLLIHGFGEYTKIQFRLMDHLSLNGYESFTFDQRGAGVTSPGRSKGVTDEYHVFNDLEHFVEKNLSECKAKGIPLFMWGHSMGGGICLNYACQGKHKNEISGYIGSGPLIILHPHTMYNKPTQIIAPLLAKFLPRVRIDTGLDLKGITSDKAYRAFLGSDPMSVPLYGSFRQIHDFMQRGAKLYKNENNYIQKNFAKDKPVIIMHGQDDTINDPKGSEKFIQDCPSADKELKLYPGARHSIFSLETDKVFNTVFNDMKQWLDKHTTTEAKP | not soluble
MGSDKIHHHHHHMAQIIAVHSFRGGTGKSNLIANMAATMALQGQRVGIIDTDIQSPGIHVIFGINENKMERTLNDYLWGYCNIKDAAYDVTEALAIEQGNTSTVKGSLHLVPCSIKASEIARVLREGYDVVRLNDGFQEFIRSLKLDYLLIDTHPGLNEETLLSIGISNVLVILLRPDHQDFQGTAVTVDVARKLKVPKMLLVINKVLPSLNFLDLQQQVEKIYNAPVVGILPLSEDMVQLASKGLFSLRYPQHPISQTIKGITNQIASLVVSH | not soluble
MGSDKIHHHHHHMAQQDRLQQMREWIKTTPEISLDQLMGEYRISRDTARRDLIQLEREGKIIRVKNGLIRVGTNTTIQYDRRTEQPEKNRIAKHAVRYVQPDQTIILDAASTVARMTVHLPAQPIQIITNALAVVEQLEARPEIDLYVTGGKWDRHARSLVGIKTADDILNYQVDRVFLGACGLTEQGVFAENLEEAIVKKAMIRSSAEVIVLADHTKFEKRFLHKVCDLDQIDILITDERPTEQWQKWLQEADILLETAEEE | not soluble
MGSDKIHHHHHHMAQQKPHDVNEPSRRRLLKGIGALGGALAITGGCPVAHAAKAESSPGTLTPDARQEKQPFYGRHQAGILTPQQASMMLVAFDVLAADKADLERLFRLLTQRIAFLTQGGPAPDTPNPRLPPMDSGILGPWIAPDNLTITVSVGHSLFDERFGLADKAPKKLQPMTRFPNDSLDAALCHGDLLLQICANTQDTVIHALRDVIKHTPDLLSVRWKREGFISDSAARSKGKETPINLLGFKDGTANPASHDSALMDKVVWVTADQDEPAWTVGGSYQAARIIQFHVEFWDRTPLKEQQTIFGRDKHTGAPLGMKNEHDTPDYSKDPNGEVIALDSHIRLANPRTPETQSSLMMRRGYSYSLGVTNAGQLDMGLLFVCYQHDLEKGFLTVQKRLNGEALEEYVKPIGGGYFFVLPGVVDEKHYLGESLLQA | not soluble
MGSDKIHHHHHHMARILIIRFSALGDVAMTIPVVHSLAVQYPQLEITVLSRAVWQPLFQGLPANVSFIGADLTGKHKGLWGLNTLYSELKAKHFDYVADFHHVLRTKYLCLRFRLANIPVASIYKGRVGKEKLVRRRHKVLENQKSSFRRYADVLEKLGFPVLLNFSSIYGDEKGNFAEIEPVTGAKDNLKWIGIAPFAKHMGKIYPIELQEQVVAHFAADPKVKVFLFGGGKSEQEVFDGWVAKYPTVVSMIGKLNMRTELNLMSHLDVMLSMDSANMHLASLVNIPVISVWGATHPYAGFMGWKQLPVNTVQFDLSCRPCSVYGQKPCWRGDYACLREIKPEQVIAKIEGIIN | not soluble
